Assay results taken from patent US20240368285A1 (HEFEI TG IMMUNOPHARMA, published 2024).

T1: MICA on human tumor cells (A-375, A549, HCT-15, MDA-MB-231) (human, UniProt Q29983 24-383)
T1 construct: whole, on cells
T1 sequence (looked up): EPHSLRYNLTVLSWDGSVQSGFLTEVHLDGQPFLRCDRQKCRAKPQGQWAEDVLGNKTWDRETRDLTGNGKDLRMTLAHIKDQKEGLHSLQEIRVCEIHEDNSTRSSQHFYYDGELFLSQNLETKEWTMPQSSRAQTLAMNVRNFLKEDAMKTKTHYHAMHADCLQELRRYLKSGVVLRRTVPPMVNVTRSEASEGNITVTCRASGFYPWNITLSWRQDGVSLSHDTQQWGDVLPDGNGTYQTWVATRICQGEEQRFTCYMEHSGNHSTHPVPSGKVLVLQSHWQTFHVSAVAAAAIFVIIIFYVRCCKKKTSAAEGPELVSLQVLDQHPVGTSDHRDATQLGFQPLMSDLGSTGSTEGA


Assays:
MICA002α3-Fc = target: T2, MICA002α3-Fc (human); assay: ELISA on coated MICA*002 α3-Fc (1 µg/ml), HRP anti-human Fab secondary, OD450
T2 construct: Produced in the Applicant's laboratory; also called MICA*002-Fc; domain α3 of MICA-002 Fc fusion protein
T2 sequence (chain, as listed by the source limits assumed): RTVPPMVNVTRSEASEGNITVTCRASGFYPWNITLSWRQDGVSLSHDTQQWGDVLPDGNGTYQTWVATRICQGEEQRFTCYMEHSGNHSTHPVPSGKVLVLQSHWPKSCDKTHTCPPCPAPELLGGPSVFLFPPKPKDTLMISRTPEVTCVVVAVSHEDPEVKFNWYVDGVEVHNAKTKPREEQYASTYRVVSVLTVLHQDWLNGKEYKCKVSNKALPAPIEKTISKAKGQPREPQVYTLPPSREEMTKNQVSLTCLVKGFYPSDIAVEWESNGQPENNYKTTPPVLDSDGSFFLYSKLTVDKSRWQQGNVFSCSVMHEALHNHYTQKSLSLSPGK

MICA005α3-Fc = target: T3, MICA005α3-Fc (human); assay: ELISA on coated MICA*005 α3-Fc (1 µg/ml), HRP anti-human Fab secondary, OD450
T3 construct: also called MICA*005-Fc; domain α3 of MICA-005 Fc fusion protein
T3 sequence (chain, as listed by the source limits assumed): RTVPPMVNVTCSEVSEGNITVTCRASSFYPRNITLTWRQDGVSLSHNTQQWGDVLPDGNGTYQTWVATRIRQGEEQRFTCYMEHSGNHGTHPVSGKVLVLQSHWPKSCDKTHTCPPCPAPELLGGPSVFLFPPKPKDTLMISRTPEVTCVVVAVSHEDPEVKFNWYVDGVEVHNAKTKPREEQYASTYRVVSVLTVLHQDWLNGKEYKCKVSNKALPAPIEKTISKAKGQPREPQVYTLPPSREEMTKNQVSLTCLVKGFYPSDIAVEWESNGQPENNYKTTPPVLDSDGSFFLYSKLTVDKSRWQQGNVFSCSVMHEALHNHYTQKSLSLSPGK

MICA008α3-Fc = target: T4, MICA008α3-Fc (human); assay: ELISA on coated MICA*008 α3-Fc (1 µg/ml), HRP anti-human Fab secondary, OD450
T4 construct: also called MICA*008-Fc; domain α3 of MICA-008 Fc fusion protein
T4 sequence (chain, as listed by the source limits assumed): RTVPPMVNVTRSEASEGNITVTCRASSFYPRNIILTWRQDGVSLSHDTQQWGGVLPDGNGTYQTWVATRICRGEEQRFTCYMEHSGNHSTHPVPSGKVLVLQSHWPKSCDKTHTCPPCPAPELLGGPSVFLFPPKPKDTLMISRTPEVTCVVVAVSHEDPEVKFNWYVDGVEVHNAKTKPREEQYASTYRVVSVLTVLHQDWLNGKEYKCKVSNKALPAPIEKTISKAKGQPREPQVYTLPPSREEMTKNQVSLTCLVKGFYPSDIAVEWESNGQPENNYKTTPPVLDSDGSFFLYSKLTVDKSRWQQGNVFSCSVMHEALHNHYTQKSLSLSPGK

MICA004α3-Fc = target: T5, MICA004α3-Fc (human); assay: ELISA on coated MICA*004 α3-Fc (1 µg/ml), HRP anti-human Fab secondary, OD450
T5 construct: also called MICA*004-Fc; domain α3 of MICA-004 Fc fusion protein
T5 sequence (chain, as listed by the source limits assumed): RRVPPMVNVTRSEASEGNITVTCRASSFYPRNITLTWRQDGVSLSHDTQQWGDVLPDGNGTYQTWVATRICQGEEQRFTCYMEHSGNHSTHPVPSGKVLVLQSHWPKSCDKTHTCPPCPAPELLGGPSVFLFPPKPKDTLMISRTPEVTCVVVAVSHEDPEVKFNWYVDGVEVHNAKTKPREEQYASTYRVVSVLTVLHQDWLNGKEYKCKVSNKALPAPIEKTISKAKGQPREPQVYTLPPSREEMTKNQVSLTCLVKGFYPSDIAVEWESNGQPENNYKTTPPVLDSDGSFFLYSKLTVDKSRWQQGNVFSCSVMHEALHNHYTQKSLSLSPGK

MICB001α3-Fc = target: T6, MICB001α3-Fc; assay: ELISA on coated MICB*001 α3-Fc (1 µg/ml), HRP anti-human Fab secondary, OD450
T6 construct: also called MICB*001-Fc; domain α3 of MICB-001 Fc fusion protein
T6 sequence (chain, as listed by the source limits assumed): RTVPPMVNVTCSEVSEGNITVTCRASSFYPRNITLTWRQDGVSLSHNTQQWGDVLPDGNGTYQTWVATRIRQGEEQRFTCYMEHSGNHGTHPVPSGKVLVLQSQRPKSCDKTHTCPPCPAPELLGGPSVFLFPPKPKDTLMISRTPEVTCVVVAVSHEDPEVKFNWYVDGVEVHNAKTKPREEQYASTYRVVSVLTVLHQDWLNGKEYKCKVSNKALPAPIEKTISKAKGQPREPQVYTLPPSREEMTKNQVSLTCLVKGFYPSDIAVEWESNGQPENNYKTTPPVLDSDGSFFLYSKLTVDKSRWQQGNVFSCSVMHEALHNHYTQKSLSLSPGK

MICB005α3-Fc = target: T7, MICB005α3-Fc; assay: ELISA on coated MICB*005 α3-Fc (1 µg/ml), HRP anti-human Fab secondary, OD450
T7 construct: also called MICB*005-Fc; domain α3 of MICB-005 Fc fusion protein
T7 sequence (chain, as listed by the source limits assumed): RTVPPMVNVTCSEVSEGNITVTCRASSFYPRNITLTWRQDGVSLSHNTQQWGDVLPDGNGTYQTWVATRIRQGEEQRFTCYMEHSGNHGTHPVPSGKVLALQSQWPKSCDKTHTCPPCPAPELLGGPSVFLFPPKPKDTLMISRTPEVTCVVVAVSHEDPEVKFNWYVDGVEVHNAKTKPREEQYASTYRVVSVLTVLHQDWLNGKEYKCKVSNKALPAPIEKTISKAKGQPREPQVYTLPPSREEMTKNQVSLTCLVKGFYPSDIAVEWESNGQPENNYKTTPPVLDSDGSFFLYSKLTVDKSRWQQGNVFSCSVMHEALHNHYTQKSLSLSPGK

[1] = target: T1, MICA on human tumor cells (A-375, A549, …); assay: flow cytometry on A-375 cells, Alexa-647 goat anti-human secondary, % binding ratio
Procedure: (§1) (2) Tumor cells were diluted to a density of 2×10⁶/mL with PBS and added into a 1.5 ml EP tube in a volume of 100 l/tube. 10 l/tube of goat serum was added into the EP tube; and blocking was conducted at 4° C. for 30 min. […] The tube was incubated at 4° C. for 30 min. 1 mL of PBS was added into the EP tube, and centrifugation was conducted 4° C. at a rate of 3,500 rpm for 5 min. The supernatant was removed. Then, the EP tube was washed once with the PBS, and the supernatant was removed after centrifugation. The cells were resuspended with PBS in a volume of 100 l/tube. An Alexa-647 labeled goat anti-human secondary antibody (purchased from Jackson lab) was added into the tube in a volume of 1 l/tube, and the tube was incubated in the dark at 4° C. for 30 min. The tube was washed twice with PBS, and the supernatant was removed after centrifugation. The cells were resuspended with the PBS in a volume of 200 l/tube, and detection was conducted by a flow cytometer. The results are as shown in FIG. 17A and FIG. 17B, FIG. 18A and FIG. 18B, FIG. 19A and FIG. 19B, and FIG. 20A and FIG. 20B.

[2] = target: T1, MICA on human tumor cells (A-375, A549, …); assay: flow cytometry on A-549 cells, Alexa-647 goat anti-human secondary, % binding ratio
Procedure: as §1

[3] = target: T1, MICA on human tumor cells (A-375, A549, …); assay: flow cytometry on HCT-15 cells, Alexa-647 goat anti-human secondary, % binding ratio
Procedure: as §1

[4] = target: T1, MICA on human tumor cells (A-375, A549, …); assay: flow cytometry on MDA-MB-231 cells, Alexa-647 goat anti-human secondary, % binding ratio
Procedure: as §1

[5] = target: T1, MICA on human tumor cells (A-375, A549, …); assay: flow cytometry competition on HCT-15 cells; competitor: Biotin-h5A1002, detected with Alexa-647 streptavidin; % binding ratio of Biotin-h5A1002
Procedure: HCT-15 cells were diluted to a density of 2×10⁶/mL with PBS and added into a 1.5 ml EP tube in a volume of 100 l/tube. 10 l/tube of goat serum was added into the EP tube, and blocking was conducted at 4° C. for 30 min. […] The tube was incubated at 4° C. for 30 min. A biotin-labeled affinity maturation antibody Biotin-h5A1002 (having a heavy chain sequence as set forth in SEQ ID NO: 13 and a light chain sequence as set forth in SEQ ID NO: 14) was added. The tube was incubated at 4° C. for 30 min. 1 mL of PBS was added into the EP tube, and centrifugation was conducted 4° C. at a rate of 3,500 rpm for 5 min. The supernatant was removed. The EP tube was washed once with the PBS, and the supernatant was removed after centrifugation. The cells were resuspended with PBS in a volume of 100 l/tube. An Alexa-647 labeled Streptavidin secondary antibody (purchased from Biolegend) was added into the tube in a volume of 1 l/tube, and the tube was incubated in the dark at 4° C. for 30 min. The tube was washed twice with PBS, and the supernatant was removed after centrifugation. The cells were resuspended with the PBS in a volume of 200 μl/tube, and detection was conducted by a flow cytometer.

Row | Binder | EC50 (read off the curve) (MICA002α3-Fc) | EC50 (read off the curve) (MICA005α3-Fc) | EC50 (read off the curve) (MICA008α3-Fc) | EC50 (read off the curve) (MICA004α3-Fc) | EC50 (read off the curve) (MICB001α3-Fc) | EC50 (read off the curve) (MICB005α3-Fc) | EC50 (read off the curve) [1] | EC50 (read off the curve) [2] | EC50 (read off the curve) [3] | EC50 (read off the curve) [4] | IC50 (read off the curve) [5]
1 | antibody 1D5V11 (Genentech) (antibody, human IgG1, kappa, V domains shown, also called homogeneous antibody 1D5V11) VH: EIQLVQSGAEVKKPGASVKVSCKASGYAFTSQNIYWVRQAPGQGLEWIGYIEPYNVVPMYNPKFKGRATLTVDKSTSTAYLELSSLRSEDTAVYYCARSGSSNFDYWGQGTLVTVSS VL: DIQLTQSPSSLSASVGDRVTITCSASSSISSHYLHWYQQKPGKSPKLLIYRTSNLASGVPSRFSGSGSGTDYTLTISSLQPEDFATYYCQQGSSLPLTFGQGTKVEIKR | ~0.05 µg/mL | ~0.09 µg/mL | ~0.07 µg/mL | ~0.04 µg/mL | ~0.03 µg/mL | ~0.04 µg/mL | ~0.3 µg/mL | ~0.4 µg/mL | ~0.1 µg/mL | ~0.3 µg/mL | ~5 µg/mL
2 | antibody CLN-619 (Cullinan) (antibody, human IgG1, kappa, V domains shown, hIgG1 subtype) VH: QVQLVESGGGLVKPGGSLRLSCAASGFTFSNYAMSWIRQAPGKGLEWVSYISPGGDYIYYADSVKGRFTISRDNAKNSLYLQMNSLRAEDTAVYYCTTDRRHYGSYAMDYWGQGTLVTVSS VL: DIVMTQSPLSLPVTPGEPASISCRSSKSLLHSNLNTYLYWFLQKPGQSPQILIYRMSNLASGVPDRFSGSGSGTAFTLKISRVEAEDVGVYYCMQHLEYPFTFGPGTKLEIKR | ~0.07 µg/mL | ~0.2 µg/mL | ~0.1 µg/mL | ~0.04 µg/mL | ~0.05 µg/mL | ~0.04 µg/mL | ~0.7 µg/mL | ~0.7 µg/mL | ~0.3 µg/mL | ~0.7 µg/mL | ~4 µg/mL
